# Data as given in US7148014 (University of Pennsylvania, dated 2006).
# Target: T1, FcγRIIIA α + γ (WT) on transfected COS-1 cells (human; mouse, UniProt P08637 17-254; P20491 19-86)
# T1 construct: whole, on cells; also called FcγRIIIA-γγ; FcγRIIIA α and wild type γ
# Test: flow cytometry, COS-1 cells cotransfected with α and γ
# T1 sequence (P08637 17-254, chain 1 of 2): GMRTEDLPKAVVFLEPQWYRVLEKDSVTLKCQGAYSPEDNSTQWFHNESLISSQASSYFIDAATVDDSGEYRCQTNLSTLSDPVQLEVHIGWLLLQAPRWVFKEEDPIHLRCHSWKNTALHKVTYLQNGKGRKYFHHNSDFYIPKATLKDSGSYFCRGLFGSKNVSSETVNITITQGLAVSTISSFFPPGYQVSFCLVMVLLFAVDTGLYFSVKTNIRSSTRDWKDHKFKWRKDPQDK
# T1 sequence (P20491 19-86, chain 2 of 2): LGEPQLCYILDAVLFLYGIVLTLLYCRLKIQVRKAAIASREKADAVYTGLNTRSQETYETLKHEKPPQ
binder,measurement,value
"anti-FcγRIII mAb, 3G8 (antibody) chain 1: QVTLKESGPGILQPSQTLSLTCSFSGFSLRTSGMGVGWIRQPSGKGLEWLAHIWWDDDKRYNPALKSRLTISKDTSSNQVFLKIASVDTADTATYYCAQINPAWFAYWGQGTLVTVS chain 2: DIVLTQSPASLAVSLGQRATISCKASQSVDFDGDSFMNWYQQKPGQPPKLLIYTTSNLESGIPARFSASGSGTDFTLNIHPVEEEDTATYYCQQSNEDPYTFGGGTKLELK",fold increase of mean fluorescence intensity over IgG isotype control or mock-transfected cells,15 fold
